According to the supplement of paper PMC9112550, “Optimization of the antimicrobial peptide Bac7 by deep mutational scanning” (BMC Biology, 2022):

Test system: Escherichia coli TOP10
Assay: shrunken log2 fold change of peptide-encoding DNA abundance (4.5 h post-induction vs induction); higher = less antimicrobial activity (less host growth inhibition)
Conditions: time post-induction: 4.5 h; library: site-saturation at positions 5, 18, 19, 20
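Note: peptides expressed intracellularly from a pBAD plasmid library in pooled LB shake-flask culture, induced with 0.3% L-arabinose, DNA abundance read by NGS, three biological replicates, DESeq2 with apeglm shrinkage.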

RRIRQRPPRLPRPRPRPDPNPRP and RRIRQRPPRLPRPRPRPDRKPRP are within 0.2 log units of each other in “shrunken log2 fold change” value: -0.187 for the first, -0.085 for the second.

RRIRQRPPRLPRPRPRPDSWPRP and RRIRQRPPRLPRPRPRPDVCPRP are within 0.2 log units of each other in “shrunken log2 fold change” value: 0.0403 for the first, 0.13 for the second.

RRIRQRPPRLPRPRPRPDVLPRP and RRIRQRPPRLPRPRPRPDVQPRP are within 0.2 log units of each other in “shrunken log2 fold change” value: 0.0137 for the first, -0.0191 for the second.

RRIRQRPPRLPRPRPRPDVTPRP and RRIRQRPPRLPRPRPRPDVYPRP are within 0.2 log units of each other in “shrunken log2 fold change” value: 0.143 for the first, 0.0517 for the second.

RRIRQRPPRLPRPRPRPDWDPRP and RRIRQRPPRLPRPRPRPDWLPRP are within 0.2 log units of each other in “shrunken log2 fold change” value: -0.00122 for the first, -0.102 for the second.

Going from RRIRQRPPRLPRPRPRPDYHPRP to RRIRQRPPRLPRPRPRPEAHPRP, the “shrunken log2 fold change” value rises from -0.269 to 0.0944.

RRIRQRPPRLPRPRPRPEAMPRP and RRIRQRPPRLPRPRPRPEAYPRP are within 0.2 log units of each other in “shrunken log2 fold change” value: 0.00408 for the first, 0.0335 for the second.

RRIRQRPPRLPRPRPRPEDGPRP and RRIRQRPPRLPRPRPRPEEPPRP are within 0.2 log units of each other in “shrunken log2 fold change” value: 0.154 for the first, 0.0685 for the second.

Compared with RRIRQRPPRLPRPRPRPEFWPRP, RRIRQRPPRLPRPRPRPEGKPRP is lower in “shrunken log2 fold change” value: 0.238 for the first, 0.0352 for the second.

RRIRQRPPRLPRPRPRPEGLPRP and RRIRQRPPRLPRPRPRPEHLPRP are within 0.2 log units of each other in “shrunken log2 fold change” value: -0.0407 for the first, -0.00142 for the second.

RRIRQRPPRLPRPRPRPEIDPRP and RRIRQRPPRLPRPRPRPEIFPRP are within 0.2 log units of each other in “shrunken log2 fold change” value: -0.0412 for the first, 0.127 for the second.

RRIRQRPPRLPRPRPRPEIIPRP and RRIRQRPPRLPRPRPRPEKEPRP are within 0.2 log units of each other in “shrunken log2 fold change” value: 0.0359 for the first, -0.0081 for the second.

RRIRQRPPRLPRPRPRPEKNPRP and RRIRQRPPRLPRPRPRPELQPRP are within 0.2 log units of each other in “shrunken log2 fold change” value: 0.172 for the first, -0.0257 for the second.

Compared with RRIRQRPPRLPRPRPRPEMIPRP, RRIRQRPPRLPRPRPRPEMRPRP is higher in “shrunken log2 fold change” value: -0.0264 for the first, 1.13 for the second.

RRIRQRPPRLPRPRPRPENHPRP and RRIRQRPPRLPRPRPRPENNPRP are within 0.2 log units of each other in “shrunken log2 fold change” value: -0.176 for the first, -0.331 for the second.

RRIRQRPPRLPRPRPRPENPPRP and RRIRQRPPRLPRPRPRPEPCPRP are within 0.2 log units of each other in “shrunken log2 fold change” value: 0.0317 for the first, -0.0944 for the second.

RRIRQRPPRLPRPRPRPEPIPRP and RRIRQRPPRLPRPRPRPEQVPRP are within 0.2 log units of each other in “shrunken log2 fold change” value: 0.047 for the first, 0.107 for the second.

Compared with RRIRQRPPRLPRPRPRPERIPRP, RRIRQRPPRLPRPRPRPERLPRP is higher in “shrunken log2 fold change” value: -0.328 for the first, -0.0028 for the second.

RRIRQRPPRLPRPRPRPERMPRP and RRIRQRPPRLPRPRPRPETFPRP are within 0.2 log units of each other in “shrunken log2 fold change” value: 0.0275 for the first, -0.0643 for the second.

Going from RRIRQRPPRLPRPRPRPETYPRP to RRIRQRPPRLPRPRPRPEWTPRP, the “shrunken log2 fold change” value rises from -0.213 to -0.00618.

RRIRQRPPRLPRPRPRPEYHPRP and RRIRQRPPRLPRPRPRPFAIPRP are within 0.2 log units of each other in “shrunken log2 fold change” value: -0.141 for the first, 0.00479 for the second.

First: RRIRQRPPRLPRPRPRPFDCPRP
Second: RRIRQRPPRLPRPRPRPFDGPRP
The “shrunken log2 fold change” value of the first is higher: -0.408 for the first, -0.901 for the second.

RRIRQRPPRLPRPRPRPFEMPRP and RRIRQRPPRLPRPRPRPFENPRP are within 0.2 log units of each other in “shrunken log2 fold change” value: -0.0512 for the first, -0.00804 for the second.

Going from RRIRQRPPRLPRPRPRPFETPRP to RRIRQRPPRLPRPRPRPFFAPRP, the “shrunken log2 fold change” value rises from -0.232 to 0.414.

RRIRQRPPRLPRPRPRPFFQPRP and RRIRQRPPRLPRPRPRPFHWPRP are within 0.2 log units of each other in “shrunken log2 fold change” value: -0.0889 for the first, 0.0728 for the second.

RRIRQRPPRLPRPRPRPFICPRP and RRIRQRPPRLPRPRPRPFKDPRP are within 0.2 log units of each other in “shrunken log2 fold change” value: -0.0129 for the first, -0.126 for the second.

Compared with RRIRQRPPRLPRPRPRPFLEPRP, RRIRQRPPRLPRPRPRPFLKPRP is lower in “shrunken log2 fold change” value: -0.155 for the first, -0.939 for the second.

Going from RRIRQRPPRLPRPRPRPFLPPRP to RRIRQRPPRLPRPRPRPFMLPRP, the “shrunken log2 fold change” value falls from -0.0691 to -0.278.

RRIRQRPPRLPRPRPRPFMNPRP and RRIRQRPPRLPRPRPRPFMPPRP are within 0.2 log units of each other in “shrunken log2 fold change” value: -0.148 for the first, -0.216 for the second.

Compared with RRIRQRPPRLPRPRPRPFNLPRP, RRIRQRPPRLPRPRPRPFNVPRP is higher in “shrunken log2 fold change” value: -0.649 for the first, -0.375 for the second.

Compared with RRIRQRPPRLPRPRPRPFSLPRP, RRIRQRPPRLPRPRPRPFTCPRP is lower in “shrunken log2 fold change” value: 0.14 for the first, -0.158 for the second.

Going from RRIRQRPPRLPRPRPRPFWQPRP to RRIRQRPPRLPRPRPRPFWSPRP, the “shrunken log2 fold change” value falls from 0.213 to -0.00402.

Going from RRIRQRPPRLPRPRPRPFWVPRP to RRIRQRPPRLPRPRPRPFYKPRP, the “shrunken log2 fold change” value falls from 0.176 to -0.118.

Compared with RRIRQRPPRLPRPRPRPFYLPRP, RRIRQRPPRLPRPRPRPGALPRP is higher in “shrunken log2 fold change” value: -0.437 for the first, 0.0446 for the second.

Compared with RRIRQRPPRLPRPRPRPGARPRP, RRIRQRPPRLPRPRPRPGCQPRP is lower in “shrunken log2 fold change” value: 0.451 for the first, -0.103 for the second.

Compared with RRIRQRPPRLPRPRPRPGFYPRP, RRIRQRPPRLPRPRPRPGGGPRP is higher in “shrunken log2 fold change” value: 0.116 for the first, 0.748 for the second.

First: RRIRQRPPRLPRPRPRPGGMPRP
Second: RRIRQRPPRLPRPRPRPGKDPRP
The “shrunken log2 fold change” value of the first is higher: 0.2 for the first, -0.115 for the second.

RRIRQRPPRLPRPRPRPGKFPRP was tested, and the “shrunken log2 fold change” value was -0.148.
